Patent publication US20220402995A1 (TOSOH, published 2022)
Where a chain is given by its changes, count along the chain named.

B1: wild-type AAV-binding protein (extracellular domains 1 and 2, PKD1 and PKD2, of KIAA0319L/AAVR, positions 312-500 of SEQ ID NO: 1, with His tag) (receptor)
chain: MGSAGESVQITLPKNEVQLNAYVLQEPPKGETYTYDWQLITHPRDYSGEMEGKHSQILKLSKLTPGLYEFKVIVEGQNAHGEGYVNVTVKPEPRKNRPPIAIVSPQFQEISLPTTSTVIDGSQSTDDDKIVQYHWEELKGPLREEKISEDTAILKLSKLVPGNYTFSLTVVDSDGATNSTTANLTVNKAVDHHHHHH
notes: Expressed in E. coli; tested as extract, culture supernatant or purified protein; also called wild-type AVR; product of pET-AAVRD2
B2: AVR2 (AAV-binding protein No. 32, Tyr342Cys-Gly390Ser substitution product) (receptor)
chain: B1 chain with Y33C, G81S
B3: AVR8g (Val317Asp, Tyr342Cys, Lys362Glu, Lys371Asn, Gly390Ser, Lys399Glu, Ser476Arg, Asn487Asp) (receptor)
chain: B1 chain with V8D, Y33C, K53E, K62N, G81S, K90E, S167R, N178D
B4: AVR5e (Tyr342Cys, Gly390Ser, Lys399Glu, Ser476Arg, Asn487Asp) (receptor)
chain: B1 chain with Y33C, G81S, K90E, S167R, N178D
B5: AAV-binding protein No. 36 (Tyr355His, Asn387Ser) (receptor)
chain: B1 chain with Y46H, N78S
B6: AAV-binding protein No. 49 (Tyr331Cys, Thr343Met, Tyr355Cys) (receptor)
chain: B1 chain with Y22C, T34M, Y46C
B7: AAV-binding protein No. 53 (Asp354Gly, Leu369Gln, Lys455Arg) (receptor)
chain: B1 chain with D45G, L60Q, K146R
B8: AVR4a (Ile319Phe, Tyr342Cys, Gly390Ser, Ser476Arg) (receptor)
chain: B1 chain with I10F, Y33C, G81S, S167R
B9: AVR3 (AAV-binding protein No. 75; Tyr342Cys, Gly390Ser, Ser476Arg) (receptor)
chain: B1 chain with Y33C, G81S, S167R
B10: AAV-binding protein No. 43 (Leu321Pro, Tyr342Asn, Ala461Ser) (receptor)
chain: B1 chain with L12P, Y33N, A152S
B11: AAV-binding protein No. 16 (Leu369Gln) (receptor)
chain: B1 chain with L60Q
B12: AAV-binding protein No. 45 (Asn329Asp, Tyr342His, Tyr355Cys) (receptor)
chain: B1 chain with N20D, Y33H, Y46C
B13: AAV-binding protein No. 30 (Glu340Gly, Tyr342Cys) (receptor)
chain: B1 chain with E31G, Y33C
B14: AAV-binding protein No. 47 (Asn329Tyr, Tyr377Cys, Arg406Ser) (receptor)
chain: B1 chain with N20Y, Y68C, R97S
B15: AAV-binding protein No. 29 (Leu333Val, Tyr342Cys) (receptor)
chain: B1 chain with L24V, Y33C
B16: AVR5b (Ile319Phe, Lys323Glu, Tyr342Cys, Gly390Ser, Ser476Arg) (receptor)
chain: B1 chain with I10F, K14E, Y33C, G81S, S167R
B17: AAV-binding protein No. 9 (Pro352Leu) (receptor)
chain: B1 chain with P43L
B18: AVR8a (Val317Asp, Asn324Asp, Tyr342Cys, Lys362Glu, Gly390Ser, Lys399Glu, Ser476Arg, Asn487Asp) (receptor)
chain: B1 chain with V8D, N15D, Y33C, K53E, G81S, K90E, S167R, N178D
B19: AVR7a (AAV-binding protein No. 93; AVR5e + Asn324Asp, Lys362Glu) (receptor)
chain: B1 chain with N15D, Y33C, K53E, G81S, K90E, S167R, N178D
B20: AVR4d (Tyr342Cys, Gly390Ser, Ser476Arg, Asn487Asp) (receptor)
chain: B1 chain with Y33C, G81S, S167R, N178D
B21: AVR3HC (protein having an immobilization tag at the C-terminus of AVR3) (receptor)
chain: MGSAGESVQITLPKNEVQLNAYVLQEPPKGETCTYDWQLITHPRDYSGEMEGKHSQILKLSKLTPGLYEFKVIVEGQNAHSEGYVNVTVKPEPRKNRPPIAIVSPQFQEISLPTTSTVIDGSQSTDDDKIVQYHWEELKGPLREEKISEDTAILKLSKLVPGNYTFRLTVVDSDGATNSTTANLTVNKAVDHHHHHHCRNDTCG
notes: Immobilised on gel; also called AVR3HC-immobilized gel
B22: AVR8gHC (protein having an immobilization tag at the C-terminus of AVR8g) (receptor)
chain: B21 chain with V8D, K53E, K62N, K90E, N178D
notes: Immobilised on gel; also called AVR8gHC-immobilized gel

Legend:
[1] = biological target: T1, VLP2 (virus-like particles of AAV2) (AAV2, UniProt P03135 1-735; P03135 1-598; P03135 1-533); experiment: ELISA on VLP2; A450 after 66.1°C 15 min / untreated
T1 construct: Empty AAV2 capsid; background says about 60 protein molecules, VP1:VP2:VP3 = 1:1:10; Immobilised on the ELISA plate
T1 sequence (P03135 whole entry, chain 1 of 3): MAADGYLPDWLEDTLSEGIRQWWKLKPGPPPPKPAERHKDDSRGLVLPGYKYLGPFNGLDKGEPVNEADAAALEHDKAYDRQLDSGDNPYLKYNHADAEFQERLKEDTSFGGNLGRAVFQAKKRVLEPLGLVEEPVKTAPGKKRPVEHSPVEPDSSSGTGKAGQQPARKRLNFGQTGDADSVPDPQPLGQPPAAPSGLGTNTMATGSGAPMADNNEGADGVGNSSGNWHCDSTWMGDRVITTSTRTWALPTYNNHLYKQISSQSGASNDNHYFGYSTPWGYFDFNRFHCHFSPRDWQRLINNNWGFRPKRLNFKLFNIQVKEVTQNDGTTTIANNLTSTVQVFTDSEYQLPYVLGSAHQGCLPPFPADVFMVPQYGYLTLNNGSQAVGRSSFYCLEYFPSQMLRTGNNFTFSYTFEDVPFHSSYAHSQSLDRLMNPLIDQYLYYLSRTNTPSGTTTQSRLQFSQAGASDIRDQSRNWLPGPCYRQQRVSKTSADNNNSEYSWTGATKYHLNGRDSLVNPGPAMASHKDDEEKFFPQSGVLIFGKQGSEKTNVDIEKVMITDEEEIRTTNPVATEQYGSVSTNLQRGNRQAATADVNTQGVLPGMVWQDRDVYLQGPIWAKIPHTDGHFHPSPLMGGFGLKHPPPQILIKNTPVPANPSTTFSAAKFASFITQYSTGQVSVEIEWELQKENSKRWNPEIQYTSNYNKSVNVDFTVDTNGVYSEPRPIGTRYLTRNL
T1 sequence (P03135 139-735, tags left off, chain 2 of 3): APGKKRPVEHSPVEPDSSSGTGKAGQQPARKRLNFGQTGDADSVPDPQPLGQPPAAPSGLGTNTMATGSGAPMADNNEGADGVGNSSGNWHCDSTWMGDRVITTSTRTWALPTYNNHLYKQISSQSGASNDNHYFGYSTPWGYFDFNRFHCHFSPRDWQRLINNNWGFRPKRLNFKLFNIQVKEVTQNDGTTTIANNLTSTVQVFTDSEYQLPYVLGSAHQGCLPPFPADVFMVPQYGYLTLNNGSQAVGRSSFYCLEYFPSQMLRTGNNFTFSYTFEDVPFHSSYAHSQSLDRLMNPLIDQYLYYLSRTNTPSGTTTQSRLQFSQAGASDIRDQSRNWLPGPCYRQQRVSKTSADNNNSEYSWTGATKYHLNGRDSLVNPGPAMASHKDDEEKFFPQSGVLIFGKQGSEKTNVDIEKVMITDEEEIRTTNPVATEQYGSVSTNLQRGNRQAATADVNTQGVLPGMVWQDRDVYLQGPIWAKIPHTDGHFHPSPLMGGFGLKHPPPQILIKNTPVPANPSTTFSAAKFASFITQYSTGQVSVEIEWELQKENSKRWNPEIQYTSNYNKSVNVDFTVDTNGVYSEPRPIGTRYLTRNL
T1 sequence (P03135 203-735, chain 3 of 3): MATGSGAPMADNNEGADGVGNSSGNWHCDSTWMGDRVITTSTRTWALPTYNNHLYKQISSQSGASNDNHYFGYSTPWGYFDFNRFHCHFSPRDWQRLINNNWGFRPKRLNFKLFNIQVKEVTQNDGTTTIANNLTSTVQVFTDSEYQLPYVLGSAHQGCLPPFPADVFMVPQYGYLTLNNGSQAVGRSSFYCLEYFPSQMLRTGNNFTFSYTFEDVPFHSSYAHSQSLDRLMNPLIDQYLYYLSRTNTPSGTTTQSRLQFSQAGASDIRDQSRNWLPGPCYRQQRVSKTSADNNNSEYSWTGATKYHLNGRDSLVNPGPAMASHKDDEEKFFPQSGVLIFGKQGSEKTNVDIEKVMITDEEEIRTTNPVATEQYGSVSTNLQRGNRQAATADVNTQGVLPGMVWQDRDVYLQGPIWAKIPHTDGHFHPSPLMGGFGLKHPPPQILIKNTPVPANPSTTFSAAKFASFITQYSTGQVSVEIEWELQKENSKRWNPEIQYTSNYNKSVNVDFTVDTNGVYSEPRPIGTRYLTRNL

[2] = biological target: T1, VLP2 (virus-like particles of AAV2); experiment: ELISA on VLP2; A450 after pH 2.5 30°C 24 h / untreated
[3] = biological target: T2, AAV2-EGFP (AAV vector of serotype 2 carrying an EGFP gene) (AAV2, UniProt P03135 1-735; P03135 1-598; P03135 1-533); experiment: mini column of immobilised protein loaded to breakthrough; AAV2-EGFP recovered by elution at pH 3.0, qPCR
T2 construct: Genome-containing AAV2 particle; amounts counted as vector genomes (VG) by qPCR
T2 sequence (P03135 whole entry, chain 1 of 3, the tested form may be a part): as the sequence (P03135 whole entry, chain 1 of 3) above
T2 sequence (P03135 139-735, tags left off, chain 2 of 3): as the sequence (P03135 139-735, tags left off, chain 2 of 3) above
T2 sequence (P03135 203-735, chain 3 of 3): as the sequence (P03135 203-735, chain 3 of 3) above

[4] = biological target: T1, VLP2 (virus-like particles of AAV2); experiment: ELISA on VLP2; binding after 43°C 15 min / untreated
[5] = biological target: T1, VLP2 (virus-like particles of AAV2); experiment: ELISA on VLP2; A450 after pH 2.5 30°C 2 h / untreated
[6] = biological target: T1, VLP2 (virus-like particles of AAV2); experiment: ELISA on VLP2; A450 after 50.3°C 15 min / untreated
[7] = biological target: T1, VLP2 (virus-like particles of AAV2); experiment: ELISA on VLP2; binding after pH 3.0 51.1°C 15 min / untreated;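 further: binding of the heat-treated AAV-binding protein to VLP2, expressed as a percentage of the binding of the same protein without heating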
[8] = biological target: T1, VLP2 (virus-like particles of AAV2); experiment: ELISA on VLP2; A450 after pH 3.0 89.8°C 15 min / 25°C
[9] = biological target: T1, VLP2 (virus-like particles of AAV2); experiment: ELISA on VLP2; A450 after pH 3.0 80.8°C 15 min / 25°C
[10] = biological target: T1, VLP2 (virus-like particles of AAV2); experiment: ELISA on VLP2; binding after pH 10.0 41.2°C 15 min / untreated
[11] = biological target: T1, VLP2 (virus-like particles of AAV2); experiment: ELISA on VLP2; binding after pH 3.0 61.0°C 15 min / untreated
[12] = biological target: T1, VLP2 (virus-like particles of AAV2); experiment: ELISA on VLP2; A450 after pH 3.0 60.1°C 15 min / 25°C
[13] = biological target: T1, VLP2 (virus-like particles of AAV2); experiment: ELISA on VLP2; A450 after pH 3.0 51.5°C 15 min / 25°C
[14] = biological target: T1, VLP2 (virus-like particles of AAV2); experiment: ELISA on VLP2; A450 after pH 3.0 66.1°C 15 min / 25°C

Binder	Residual activity [%] [1] [%]	Residual activity [%] [2] [%]	Residual activity [%] [4] [%]	Residual activity [%] [5] [%]	Residual activity [%] [6] [%]	other results
B1	9.6	5.1	43.4	7.9	16.1	amount of AAV2-EGFP bound per 1 mL of protein-immobilized gel [3]: 8.6e+09 VG/mL (gel)
B2	70.5	64.7	97.6	70.7	76	Residual activity [%] [7]: 25.5%
B3	–	–	–	–	–	Residual activity after heat treatment [%] [8]: 55%; Residual activity after heat treatment [%] [9]: 67%; Residual activity [%] [10]: 23.1%
B4	–	–	–	–	–	Residual activity [%] [11]: 25.5%; Residual activity after heat treatment [%] [12]: 56%; Residual activity after heat treatment [%] [13]: 77%; Residual activity after heat treatment [%] [14]: 43%
B5	51	8.9	86.6	16.1	74.5	–
B6	57.3	16.6	97.7	52.8	77.3	–
B7	23.5	13.2	90.5	18.2	29.8	–
B8	–	–	–	–	–	Residual activity after heat treatment [%] [12]: 16%; Residual activity after heat treatment [%] [13]: 57%; Residual activity after heat treatment [%] [14]: 8%
B9	–	–	–	–	–	Residual activity [%] [7]: 96.3%; Residual activity after heat treatment [%] [12]: 3%; Residual activity after heat treatment [%] [13]: 21%; Residual activity after heat treatment [%] [14]: 2%
B10	56.3	28.3	84.1	41.4	55.6	–
B11	20.3	10	92.8	17.3	32	–
B12	46.7	47.6	97.2	64.4	66	–
B13	52.4	56.1	91.3	70.5	65.4	–
B14	58.7	34.8	92.7	43.6	64.5	–
B15	54.5	40.2	91.8	52.2	66.7	–
B16	–	–	–	–	–	Residual activity after heat treatment [%] [12]: 43%; Residual activity after heat treatment [%] [13]: 87%; Residual activity after heat treatment [%] [14]: 23%
B17	46.5	5.6	71.9	17.6	49	–
B18	–	–	–	–	–	Residual activity after heat treatment [%] [8]: 52%; Residual activity after heat treatment [%] [9]: 66%
B19	–	–	–	–	–	Residual activity after heat treatment [%] [8]: 54%; Residual activity [%] [11]: 50.7%; Residual activity after heat treatment [%] [9]: 57%
B20	–	–	–	–	–	Residual activity after heat treatment [%] [12]: 35%; Residual activity after heat treatment [%] [13]: 66%; Residual activity after heat treatment [%] [14]: 18%
B21	–	–	–	–	–	amount of AAV2-EGFP bound per 1 mL of protein-immobilized gel [3]: 2.8e+12 VG/mL (gel)
B22	–	–	–	–	–	amount of AAV2-EGFP bound per 1 mL of protein-immobilized gel [3]: 1.2e+13 VG/mL (gel)
